Results published in paper PMC3326535.

What was measured:
[1] = molecular target: Human quinolinate phosphoribosyltransferase (hQPRTase) (human) (UniProt Q15274); assay: crystal structure
[2] = molecular target: Human quinolinate phosphoribosyltransferase (hQPRTase) (human) (UniProt Q15274); assay: SEC

- stoichiometry N [1]: 6
- stoichiometry N [2]: 6
Substance: Human quinolinate phosphoribosyltransferase (hQPRTase) (from UniProt Q15274 1-297) (enzyme)
